The data set “dynamic light scattering” concerns the molecule itself. The experiment in a line: dynamic light scattering.
The target of another data set is T1, GPSP-P40-I60.
T1 chain: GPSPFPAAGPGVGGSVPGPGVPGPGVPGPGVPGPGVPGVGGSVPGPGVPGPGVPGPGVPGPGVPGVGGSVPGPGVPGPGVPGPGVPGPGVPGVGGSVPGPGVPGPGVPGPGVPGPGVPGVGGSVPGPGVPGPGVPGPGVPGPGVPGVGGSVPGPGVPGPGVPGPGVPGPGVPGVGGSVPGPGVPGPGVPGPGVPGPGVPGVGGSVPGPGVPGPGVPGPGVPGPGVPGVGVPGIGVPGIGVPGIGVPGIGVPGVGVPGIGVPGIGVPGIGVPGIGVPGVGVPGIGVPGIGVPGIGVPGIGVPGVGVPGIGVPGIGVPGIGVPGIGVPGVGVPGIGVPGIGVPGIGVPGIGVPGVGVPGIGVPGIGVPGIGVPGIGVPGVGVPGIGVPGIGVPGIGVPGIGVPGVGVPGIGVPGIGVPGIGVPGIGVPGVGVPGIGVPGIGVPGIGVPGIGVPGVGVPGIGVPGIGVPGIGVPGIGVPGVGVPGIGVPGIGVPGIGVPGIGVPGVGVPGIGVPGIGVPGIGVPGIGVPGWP
Description: SYPRO Orange thermal transition assay.

Here are results for 3 molecules from article PMC3925836 (Advanced healthcare materials, 2013).

B1: GPRP-P40-I60 (designed binder)
chain: GPRPFPAAGPGVGGSVPGPGVPGPGVPGPGVPGPGVPGVGGSVPGPGVPGPGVPGPGVPGPGVPGVGGSVPGPGVPGPGVPGPGVPGPGVPGVGGSVPGPGVPGPGVPGPGVPGPGVPGVGGSVPGPGVPGPGVPGPGVPGPGVPGVGGSVPGPGVPGPGVPGPGVPGPGVPGVGGSVPGPGVPGPGVPGPGVPGPGVPGVGGSVPGPGVPGPGVPGPGVPGPGVPGVGVPGIGVPGIGVPGIGVPGIGVPGVGVPGIGVPGIGVPGIGVPGIGVPGVGVPGIGVPGIGVPGIGVPGIGVPGVGVPGIGVPGIGVPGIGVPGIGVPGVGVPGIGVPGIGVPGIGVPGIGVPGVGVPGIGVPGIGVPGIGVPGIGVPGVGVPGIGVPGIGVPGIGVPGIGVPGVGVPGIGVPGIGVPGIGVPGIGVPGVGVPGIGVPGIGVPGIGVPGIGVPGVGVPGIGVPGIGVPGIGVPGIGVPGVGVPGIGVPGIGVPGIGVPGIGVPGVGVPGIGVPGIGVPGIGVPGIGVPGWP
As to B1, the binding result in the data set “dynamic light scattering” was “binds”.

B2: GPRP-A80-I60 (designed binder)
chain: GPRPFPAAGPGVGVPGAGVPGAGVPGAGVPGAGVPGVGVPGAGVPGAGVPGAGVPGAGVPGVGVPGAGVPGAGVPGAGVPGAGVPGVGVPGAGVPGAGVPGAGVPGAGVPGVGVPGAGVPGAGVPGAGVPGAGVPGVGVPGAGVPGAGVPGAGVPGAGVPGVGVPGAGVPGAGVPGAGVPGAGVPGVGVPGAGVPGAGVPGAGVPGAGVPGVGVPGAGVPGAGVPGAGVPGAGVPGVGVPGAGVPGAGVPGAGVPGAGVPGVGVPGAGVPGAGVPGAGVPGAGVPGVGVPGAGVPGAGVPGAGVPGAGVPGVGVPGAGVPGAGVPGAGVPGAGVPGVGVPGAGVPGAGVPGAGVPGAGVPGVGVPGAGVPGAGVPGAGVPGAGVPGVGVPGAGVPGAGVPGAGVPGAGVPGVGVPGIGVPGIGVPGIGVPGIGVPGVGVPGIGVPGIGVPGIGVPGIGVPGVGVPGIGVPGIGVPGIGVPGIGVPGVGVPGIGVPGIGVPGIGVPGIGVPGVGVPGIGVPGIGVPGIGVPGIGVPGVGVPGIGVPGIGVPGIGVPGIGVPGVGVPGIGVPGIGVPGIGVPGIGVPGVGVPGIGVPGIGVPGIGVPGIGVPGVGVPGIGVPGIGVPGIGVPGIGVPGVGVPGIGVPGIGVPGIGVPGIGVPGVGVPGIGVPGIGVPGIGVPGIGVPGVGVPGIGVPGIGVPGIGVPGIGVPGWP
Regarding B2, in the data set with GPSP-P40-I60, the binding result is given as “binds”.

B3: GPSP-A80-I60 (designed binder)
chain: GPSPFPAAGPGVGVPGAGVPGAGVPGAGVPGAGVPGVGVPGAGVPGAGVPGAGVPGAGVPGVGVPGAGVPGAGVPGAGVPGAGVPGVGVPGAGVPGAGVPGAGVPGAGVPGVGVPGAGVPGAGVPGAGVPGAGVPGVGVPGAGVPGAGVPGAGVPGAGVPGVGVPGAGVPGAGVPGAGVPGAGVPGVGVPGAGVPGAGVPGAGVPGAGVPGVGVPGAGVPGAGVPGAGVPGAGVPGVGVPGAGVPGAGVPGAGVPGAGVPGVGVPGAGVPGAGVPGAGVPGAGVPGVGVPGAGVPGAGVPGAGVPGAGVPGVGVPGAGVPGAGVPGAGVPGAGVPGVGVPGAGVPGAGVPGAGVPGAGVPGVGVPGAGVPGAGVPGAGVPGAGVPGVGVPGAGVPGAGVPGAGVPGAGVPGVGVPGIGVPGIGVPGIGVPGIGVPGVGVPGIGVPGIGVPGIGVPGIGVPGVGVPGIGVPGIGVPGIGVPGIGVPGVGVPGIGVPGIGVPGIGVPGIGVPGVGVPGIGVPGIGVPGIGVPGIGVPGVGVPGIGVPGIGVPGIGVPGIGVPGVGVPGIGVPGIGVPGIGVPGIGVPGVGVPGIGVPGIGVPGIGVPGIGVPGVGVPGIGVPGIGVPGIGVPGIGVPGVGVPGIGVPGIGVPGIGVPGIGVPGVGVPGIGVPGIGVPGIGVPGIGVPGVGVPGIGVPGIGVPGIGVPGIGVPGWP
In the case of B3, the binding result in “dynamic light scattering” and in the data set with GPSP-P40-I60 was “binds” throughout.
